For experiment [1], the target named is (Δ1-28) H4 nucleosome (mononucleosome with FLAG-HA-tagged tailless human H4 lacking the first 28 amino acids) (human; human (293T cells)) (UniProt P62805). Put plainly: MudPIT, co-purification.
Experiment [2] has as its target Wild type H4 nucleosome (mononucleosome with FLAG-HA-tagged wild type human H4) (human; human (293T cells)) (UniProt P62805). Description: MudPIT, co-purification.

In experiment [1], “suppressor of Ty 16 homolog (S. cerevisiae) (from UniProt Q9Y5B9 2-1047)” displayed an amino acid coverage of 21.6% and a peptide count of 12 peptides. In experiment [2], this substance gave an amino acid coverage of 17.2% and a peptide count of 12 peptides.
In experiment [1], “RuvB-like 1 (E. coli) (from UniProt Q9Y265 1-456)” had an amino acid coverage of 21.3% and a peptide count of 8 peptides. Moreover, in experiment [2], the amino acid coverage was determined as 19.1% and the peptide count came out at 7 peptides.
“SWI/SNF related, matrix associated, actin dependent regulator of chromatin, subfamily a, member 1 (from UniProt P28370 1-1042)”: the amino acid coverage in experiment [1] worked out at 19.2%; in experiment [2], 24.9%. The peptide count amounted to 9 peptides in experiment [1] and 11 peptides in experiment [2].
The matching figures for “X-ray repair complementing defective repair in Chinese hamster cells 6 (from UniProt P12956 2-609)”: 3.2%, 5.7%, 1 peptides and 2 peptides.
For “macroH2A1.1 and macroH2A1.2 (from UniProt O75367 1-369)”, in that order: 48.2%, 55.1%, 10 peptides and 11 peptides.
For “SWI/SNF related, matrix associated, actin dependent regulator of chromatin, subfamily a, member 5 (from UniProt O60264 2-1052)”, in that order: 28.3%, 20%, 13 peptides and 9 peptides.
In experiment [1], “chromatin assembly factor 1, subunit A (from UniProt Q13111 1-956)” registered an amino acid coverage of 4.9% and a peptide count of 3 peptides. Besides, in experiment [2], the amino acid coverage turned out to be 5.5% and the peptide count worked out at 3 peptides.
Take “chromobox homolog 5 (HP1 alpha homolog, Drosophila) (from UniProt P45973 1-191)”: the amino acid coverage in experiment [1] and in experiment [2] was 21.4% each time. For the same substance, the peptide count in experiment [1] and in experiment [2] was 3 peptides throughout.
In experiment [1], “H1 histone family, member 0 (H1F0) (from UniProt P07305 2-194)” showed an amino acid coverage of 16.2% and a peptide count of 2 peptides. In experiment [2], the amino acid coverage came to 21.2% and the peptide count stood at 3 peptides.
On to “TATA box binding protein-associated factor, 135 kDa (from UniProt O00268 1-1085)”, for which, in experiment [2], the amino acid coverage came to 6.6% and the peptide count amounted to 5 peptides.
For the substance “EuHMT1 (from UniProt Q9H9B1 2-1298) (enzyme)”, in experiment [1], the peptide count was 0 peptides. In experiment [2], this substance returned an amino acid coverage of 5.7% and a peptide count of 3 peptides.
In the case of “WD repeat domain 77 (from UniProt Q9BQA1 1-342)”, in experiment [1], the amino acid coverage was 11.4% and the peptide count is 2 peptides.
Take “histone H2AX (from UniProt P16104 2-143)”: the figures for the amino acid coverage in experiment [1] and in experiment [2] were 8.4% and 13.7%, respectively. Further, the peptide count is 1 peptides in experiment [1] and 2 peptides in experiment [2].
In experiment [1], “mediator of DNA-damage checkpoint 1 (from UniProt Q14676 1-2089)” had an amino acid coverage of 18.4% and a peptide count of 4 peptides.
For the substance “SWI/SNF complex 170 KDa subunit (from UniProt Q8TAQ2 1-1214)”, in experiment [2], the amino acid coverage is 4.3% and the peptide count was determined as 3 peptides.
As for “ADP-ribosylation factor 1 (from UniProt P84077 2-181)”, in experiment [1], the amino acid coverage was 8.8% and the peptide count came to 1 peptides.
Take “chromobox homolog 3 (HP1 gamma homolog, Drosophila) (from UniProt Q13185 2-183)”: in experiment [1], the amino acid coverage was found to be 14.7% and the peptide count is 2 peptides. In experiment [2], the amino acid coverage amounted to 13.2% and the peptide count was 2 peptides.
“histone cluster 1, H1a (HIST1H1A) (from UniProt Q02539 2-215)”: the amino acid coverage in experiment [1] came out at 11.8%; in experiment [2], 11.2%. Further, the peptide count in experiment [1] and in experiment [2] was 2 peptides throughout.
For the substance “thyroid hormone receptor-associated protein complex component (from UniProt Q9Y2W1 2-955)”, in experiment [2], the amino acid coverage amounted to 3.4% and the peptide count was determined as 2 peptides.
Consider “histone cluster 1, H1b (HIST1H1B) (from UniProt P16401 2-226)”, for which, in experiment [1], the amino acid coverage came to 12.8% and the peptide count turned out to be 2 peptides. In addition, in experiment [2], the amino acid coverage was 12.5% and the peptide count was determined as 2 peptides.
For the substance “transcription factor 20 (AR1) (from UniProt Q9UGU0 1-1960)”, in experiment [2], the amino acid coverage stood at 2.4% and the peptide count was 3 peptides.
In experiment [1], “histone cluster 1, H1c (HIST1H1C) (from UniProt P16403 2-213)” showed an amino acid coverage of 12.3% and a peptide count of 2 peptides. In experiment [2], this substance showed an amino acid coverage of 10.3% and a peptide count of 2 peptides.
Consider “RuvB-like 2 (E. coli) (from UniProt Q9Y230 2-463)”, for which, in experiment [1], the amino acid coverage turned out to be 16.3% and the peptide count worked out at 8 peptides. In experiment [2], this substance returned an amino acid coverage of 13.4% and a peptide count of 5 peptides.
For “X-ray repair complementing defective repair in Chinese hamster cells 5 (from UniProt P13010 2-732)”, in that order: 5.3%, 2 peptides, 4.4% and 2 peptides.
For “remodeling and spacing factor 1 (from UniProt Q96T23 1-1441)”, in that order: 11.7%, 10 peptides, 12.2% and 12 peptides.
In experiment [2], “metal response element binding transcription factor 2 (from UniProt Q9Y483 1-593)” came in with an amino acid coverage of 4.6% and a peptide count of 2 peptides.
In experiment [1], Histone H2A had an amino acid coverage of 74.1% and a peptide count of 6 peptides. In experiment [2], this substance yielded an amino acid coverage of 63.1% and a peptide count of 5 peptides.
On to Histone H3, for which the results for the amino acid coverage in experiment [1] and in experiment [2] were 89.6% and 82.6%, respectively. Moreover, the peptide count in experiment [1] turned out to be 7 peptides; in experiment [2], 6 peptides.
“Snf2-related CREBBP activator protein (from UniProt Q6ZRS2 1-3230)”: in experiment [1], the amino acid coverage worked out at 1.9% and the peptide count turned out to be 3 peptides.
For “RAD23 homolog B (S. cerevisiae) (from UniProt P54727 1-409)”, in that order: 8.9% and 1 peptides.
For the substance “histone cluster 1, H1d (HIST1H1D) (from UniProt P16402 2-221)”, in experiment [1], the amino acid coverage amounted to 6.4% and the peptide count came to 1 peptides. Besides, in experiment [2], the amino acid coverage is 8.6% and the peptide count worked out at 1 peptides.
“methyl CpG binding protein 2 (Rett syndrome) (from UniProt P51608 1-486)”: the results for the amino acid coverage in experiment [1] and in experiment [2] were 3.1% and 12.3%, respectively. The peptide count in experiment [1] was determined as 1 peptides; in experiment [2] it was 5 peptides.
In experiment [1], “death-domain associated protein (from UniProt Q9UER7 1-740)” had an amino acid coverage of 2.4% and a peptide count of 1 peptides.
“euchromatic histone-lysine N-methyltransferase 2 (G9a) (from UniProt Q96KQ7 2-1210) (enzyme)” came in with a peptide count in experiment [1] of 0 peptides. In experiment [2], this substance gave an amino acid coverage of 4% and a peptide count of 2 peptides.
For the substance “topoisomerase (DNA) I (from UniProt P11387 2-765) (enzyme)”, in experiment [1], the amino acid coverage was determined as 4.2% and the peptide count worked out at 3 peptides. Moreover, in experiment [2], the amino acid coverage turned out to be 7.4% and the peptide count worked out at 5 peptides.
For “structure specific recognition protein 1 (from UniProt Q08945 2-709)”, in that order: 11.9%, 7 peptides, 15.8% and 9 peptides.
In experiment [1], Histone H2B gave an amino acid coverage of 59.4% and a peptide count of 5 peptides. In experiment [2], this substance registered an amino acid coverage of 54.7% and a peptide count of 5 peptides.
On to “anti-silencing function 1 homolog B (from UniProt Q9NVP2 1-202)”, for which, in experiment [1], the amino acid coverage turned out to be 18.8% and the peptide count worked out at 2 peptides.
As to nucleolin (from UniProt P19338 2-710), in experiment [1], the amino acid coverage was 16.3% and the peptide count was 8 peptides. Besides, in experiment [2], the amino acid coverage amounted to 12% and the peptide count worked out at 6 peptides.
As for “histone deacetylase 1 (from UniProt Q13547 1-482) (enzyme)”, in experiment [1], the peptide count came out at 0 peptides. Further, in experiment [2], the amino acid coverage worked out at 12.9% and the peptide count stood at 5 peptides.
“histone cluster 1, H1e (HIST1H1E) (from UniProt P10412 2-219)”: the results for the amino acid coverage in experiment [1] and in experiment [2] were 11.8% and 6.2%, respectively. Besides, the peptide count stood at 2 peptides in experiment [1] and 1 peptides in experiment [2].
The matching figures for “poly (ADP-ribose) polymerase 1 (from UniProt P09874 2-1014) (enzyme)”: 44.2%, 41.3%, 23 peptides and 21 peptides.

(Values after patent US20130345115A1.)
